This is an account of results in patent publication US20240069033A1 (Chugai, published 2024).

No end group written: not given here. puromycin linker = puromycin spacer joining the C-terminus of the translated peptide to its mRNA (mRNA display); mRNA = not defined here

Assay [1] has as its target T1, biotinylated splitNanoluc1-8.
T1 chain: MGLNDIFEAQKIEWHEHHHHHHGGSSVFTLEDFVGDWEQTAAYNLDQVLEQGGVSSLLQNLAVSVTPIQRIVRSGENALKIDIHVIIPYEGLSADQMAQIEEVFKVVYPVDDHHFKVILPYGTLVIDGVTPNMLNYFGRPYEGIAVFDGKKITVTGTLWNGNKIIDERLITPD
Nature of the assay: mRNA display pull-down with biotinylated splitNanoluc1-8 on streptavidin beads, qPCR.
Experimental: (§1) Each Display molecule before reacting with biotinylated splitNanoluc1-8 was also subjected to qPCR in the same way, and the input nucleic acid amount was calculated.

For assay [2] the target is unchanged. Nature of the assay: mRNA display pull-down with biotinylated splitNanoluc1-8, qPCR. (Quantitative PCR measures a nucleic acid by following its amplification.)
Experimental: as §1

For MVSGWRLFKKISGSGSGSGSENLYFQGKK-{puromycin linker-mRNA} (reading uncertain; also: mRNA reverse transcribed before assay, mRNA display molecule) [splitNanoluc-10], in assay [1], the binding result was “no binding”. For the same molecule, the “fold lower recovery rate than the splitNanoluc9-10 fusion peptide” value in assay [2] is not below 300 times.

For MGSMLFRVTINSGSGSGSGSENLYFQGKK-{puromycin linker-mRNA} (reading uncertain; also: mRNA reverse transcribed before assay, mRNA display molecule) [splitNanoluc-9], the binding result in assay [1] is “no binding”. The “fold lower recovery rate than the splitNanoluc9-10 fusion peptide” value in assay [2] is not below 300 times.
